Publication PMC6224480, “Insights into Kinesin-1 Activation from the Crystal Structure of KLC2 Bound to JIP3” (Structure(London, England:1993), 2018)
*: point of attachment. FITC = O=C1OC2(c3ccc(O)cc3Oc3cc(O)ccc32)c2ccc(NC(=S)*)cc21

Experiments:
Experiment in all cases: ITC; FITC-CSTN-WD2 peptide as titrant (380 uM) into wild-type or mutant KLC2^TPR-myc (44-50 uM) in the cell; 25 C; 0.1 M NaCl, 25 mM HEPES, 1 mM TCEP, pH 7.5; 2-3 experiments globally fitted with the model A + B -> AB; apparent stoichiometry Napp
[1] = biological target: KLC2^TPR-myc (kinesin light chain 2 TPR domain, wild type, C-terminal myc tag) (mouse) (UniProt O88448)
[2] = biological target: KLC2^TPR-myc Thr^200Asp mutant (mouse) (UniProt O88448)
[3] = biological target: KLC2^TPR-myc Tyr^208Ala mutant (mouse) (UniProt O88448)

Ka [1]: 820000 M⁻¹
stoichiometry N [1]: 0.67
Ka [2]: 845000 M⁻¹
stoichiometry N [2]: 0.71
Ka [3]: 541000 M⁻¹
stoichiometry N [3]: 0.67
B1: FITC-labeled CSTN(WD2) peptide (FITC-…-COOH) (peptide)
peptide: {FITC}-TRQLEWDDSTL-OH
